This passage reports binding results from publication PMC5827684.

In series [1] the test system is Fur (Mn2+-Fur) (Escherichia coli). Put plainly: EMSA. Background: In EMSA bound probe runs differently from free probe, usually more slowly.
Series [2] concerns IscR-C92A (apo-locked) (Escherichia coli). Put plainly: EMSA.

Take hmuR promoter (p1): the binding in series [1] was found to be 31.2 nM.

On to “control DNA in 3' end of hmuR coding region”, for which the binding in series [2] was 250 nM.

hmuR-hmuS intergenic, larger fragment: in series [2], the binding stood at 62.5 nM.
